According to article PMC11574045, “A cofactor-induced repressive type of transcription factor condensation can be induced by synthetic peptides to suppress tumorigenesis” (The EMBO Journal, 2024):

Tested on: HEK293FT cells transfected with TF library
Assay: Screening of TF condensates based on fluorescent puncta
Type: cell-based
Conditions: Figure 1B numerical data; TF library screen, one value per transcriptional factor
In short: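 TF plasmids (final 1.6 μg/ml) reverse-transfected with PEI (4.8 μg/ml) into HEK293FT cells; after 60 h, cells cultured ±glucose for 12 h, fixed in 4% PFA and immunostained for Flag or GAL4 tags with Alexa 488 secondaries. Puncta scored by automated imaging of 50 random fields per well.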

B1: GATAD1 (protein, UniProt Q8WUU5 1-269, looked up)
GATA zinc finger …: MPLGLKPTCSVCKTTSSSMWKKGAQGEILCHHCTGRGGAGSGGAGSGAAGGTGGSGGGGFGAATFASTSATPPQSNGGGGGKQSKQEIHRRSARLRNTKYKSAPAAEKKVSTKGKGRRHIFKLKNPIKAPESVSTIITAESIFYKGVYYQIGDVVSVIDEQDGKPYYAQIRGFIQDQYCEKSAALTWLIPTLSSPRDQFDPASYIIGPEEDLPRKMEYLEFVCHAPSEYFKSRSSPFPTVPTRPEKGYIWTHVGPTPAITIKESVANHL
- Z score of condensed fraction: -0.9628

B2: GATA2 (protein, UniProt P23769 1-480, looked up)
Endothelial transcription …: MEVAPEQPRWMAHPAVLNAQHPDSHHPGLAHNYMEPAQLLPPDEVDVFFNHLDSQGNPYYANPAHARARVSYSPAHARLTGGQMCRPHLLHSPGLPWLDGGKAALSAAAAHHHNPWTVSPFSKTPLHPSAAGGPGGPLSVYPGAGGGSGGGSGSSVASLTPTAAHSGSHLFGFPPTPPKEVSPDPSTTGAASPASSSAGGSAARGEDKDGVKYQVSLTESMKMESGSPLRPGLATMGTQPATHHPIPTYPSYVPAAAHDYSSGLFHPGGFLGGPASSFTPKQRSKARSCSEGRECVNCGATATPLWRRDGTGHYLCNACGLYHKMNGQNRPLIKPKRRLSAARRAGTCCANCQTTTTTLWRRNANGDPVCNACGLYYKLHNVNRPLTMKKEGIQTRNRKMSNKSKKSKKGAECFEELSKCMQEKSSPFSAAALAGHMAPVGHLPPFSHSGHILPTPTPIHPSSSLSFGHPHPSSMVTAMG
- Z score of condensed fraction: -0.7866

B3: GCN512 (protein, UniProt Q92830 2-837, looked up)
Histone acetyltransferase …: AEPSQAPTPAPAAQPRPLQSPAPAPTPTPAPSPASAPIPTPTPAPAPAPAAAPAGSTGTGGPGVGSGGAGSGGDPARPGLSQQQRASQRKAQVRGLPRAKKLEKLGVFSACKANETCKCNGWKNPKPPTAPRMDLQQPAANLSELCRSCEHPLADHVSHLENVSEDEINRLLGMVVDVENLFMSVHKEEDTDTKQVYFYLFKLLRKCILQMTRPVVEGSLGSPPFEKPNIEQGVLNFVQYKFSHLAPRERQTMFELSKMFLLCLNYWKLETPAQFRQRSQAEDVATYKVNYTRWLCYCHVPQSCDSLPRYETTHVFGRSLLRSIFTVTRRQLLEKFRVEKDKLVPEKRTLILTHFPKFLSMLEEEIYGANSPIWESGFTMPPSEGTQLVPRPASVSAAVVPSTPIFSPSMGGGSNSSLSLDSAGAEPMPGEKRTLPENLTLEDAKRLRVMGDIPMELVNEVMLTITDPAAMLGPETSLLSANAARDETARLEERRGIIEFHVIGNSLTPKANRRVLLWLVGLQNVFSHQLPRMPKEYIARLVFDPKHKTLALIKDGRVIGGICFRMFPTQGFTEIVFCAVTSNEQVKGYGTHLMNHLKEYHIKHNILYFLTYADEYAIGYFKKQGFSKDIKVPKSRYLGYIKDYEGATLMECELNPRIPYTELSHIIKKQKEIIKKLIERKQAQIRKVYPGLSCFKEGVRQIPVESVPGIRETGWKPLGKEKGKELKDPDQLYTTLKNLLAQIKSHPSAWPFMEPVKKSEAPDYYEVIRFPIDLKTMTERLRSRYYVTRKLFVADLQRVIANCREYNPPDSEYCRCASALEKFFYFKLKEGGLIDK
- Z score of condensed fraction: -0.5333

B4: AIRE (protein, UniProt O43918 1-545, looked up)
Autoimmune regulator: MATDAALRRLLRLHRTEIAVAVDSAFPLLHALADHDVVPEDKFQETLHLKEKEGCPQAFHALLSWLLTQDSTAILDFWRVLFKDYNLERYGRLQPILDSFPKDVDLSQPRKGRKPPAVPKALVPPPRLPTKRKASEEARAAAPAALTPRGTASPGSQLKAKPPKKPESSAEQQRLPLGNGIQTMSASVQRAVAMSSGDVPGARGAVEGILIQQVFESGGSKKCIQVGGEFYTPSKFEDSGSGKNKARSSSGPKPLVRAKGAQGAAPGGGEARLGQQGSVPAPLALPSDPQLHQKNEDECAVCRDGGELICCDGCPRAFHLACLSPPLREIPSGTWRCSSCLQATVQEVQPRAEEPRPQEPPVETPLPPGLRSAGEEVRGPPGEPLAGMDTTLVYKHLPAPPSAAPLPGLDSSALHPLLCVGPEGQQNLAPGARCGVCGDGTDVLRCTHCAAAFHWRCHFPAGTSRPGTGLRCRSCSGDVTPAPVEGVLAPSPARLAPGPAKDDTASHEPALHRDDLESLLSEHTFDGILQWAIQSMARPAAPFPS
- Z score of condensed fraction: 1.2609
